What was measured:
[1] = target: T1, HLA-B*0702 molecule on HLA-B*0702 transfected TAP deficient T2 cells (T2-B7) (human); test: MHC stabilization assay on T2-B7 cells, flow cytometry with ME.1; ratio of concentration giving 20% of maximal binding against reference peptide R10TV
T1 construct: MHC class I molecule without a defined peptide, on the surface of T2-B7 cells; its surface level was read with the anti-HLA-B7 mAb ME.1 by flow cytometry; also called HLA-B7
Protocol: The relative avidity of hTERT derived peptides for HLA-*B0702 was measured by using a MHC stabilization assay on HLAB0702 transfected T2 (T2-B7) cells in comparison with a reference peptide (R10TV) as described (Rohrlich et al. Int Immunol 2003; 15:765-72). Briefly, T2-B7 were incubated overnight at 2×10⁵ cells/well in 96-well plates in serum free medium AIM-V (Invitrogen Corp., Gibco), supplemented with 100 ng/ml of human β2-microglobulin, in the absence (negative control) or in the presence of either reference peptide […] or hTERT peptides at various final concentrations (100, 10, 1 and 0.1 μM). T2-B7 cells were labelled with a saturating concentration of ME.1 an anti-HLA-B7 mAb, then washed twice and finally stained with FITC-conjugated F(ab′)2 goat anti-mouse Ig before flow cytometry.

[2] = target: T1, HLA-B*0702 molecule on HLA-B*0702 …; test: MHC stabilization assay on T2-B7 cells, ME-1 staining; ratio of concentration inducing 20% of HLA-B*0702 expression against reference peptide CMV265-274
Description: The protocol used has been described previously (Rohrlich et al., 2003).

Binder | relative avidity [1] [ratio] | RA (relative affinity) [2] [ratio]
APRCRAVRSL (Synthetic peptide, minimum purity 80%) [hTERT peptide p4 (APRCRAVRSL, residues 4-13)] | 0.3 | –
RPSLTGARRL (Synthetic peptide, minimum purity 80%) [hTERT peptide p351 (RPSLTGARRL, residues 351-360)] | 1.5 | –
APSFRQVSCL (Synthetic peptide, minimum purity 80%) [hTERT peptide p68 (APSFRQVSCL, residues 68-77)] | 0.4 | –
APRRLVQLL (Synthetic peptide (Epytop); also called optimized p444*) [hTERT peptide analogue p444* (APRRLVQLL)] | – | 1.4
MPRAPRCRA (Synthetic peptide, minimum purity 80%) [hTERT peptide p1 (MPRAPRCRA, residues 1-9)] | 0.4 | –

Source: patent US20090175892A1 (INSTITUT PASTEUR, published 2009)
